± gives the standard deviation of the averaged measurements.
Tested on: Saccharomyces cerevisiae
Assay: protein stability index of tFT-peptide fusion (C-terminal peptide) (PSI (0-1 scale)); higher = more stable (slower turnover)
Conditions: genetic background: wild type; temperature: 30 C
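Further: PSI is a weighted mean of sequencing reads over stability bins, variants kept only with over 10 reads, mCherry proximal and sfGFP distal, peptide attached via GGGS linker.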

| Sequence | protein stability index |
| --- | --- |
| PSTLKQVMNLGA | 0.666 ± 0.18 |
| PSTPPPPPGDFL | 0.709 ± 0.037 |
| PSTSHLALSWSV | 0.703 ± 0.065 |
| PSVAPFPLAPFS | 0.71 ± 0.066 |
| PSVLGCIVPLIW | 0.7197 ± 0.0043 |
| PSVLLAPTRRHP | 0.678 ± 0.0016 |
| PSVPLAGFVCRA | 0.587 ± 0.11 |
| PSVPPRVCSFSI | 0.735 ± 0.08 |
| PSWEPLPLPAVL | 0.707 ± 0.018 |
| PSYKRGGSYPMQ | 0.692 ± 0.049 |
| PSYLALPLSTSP | 0.684 ± 0.024 |
| PTAPPRLRLSFC | 0.667 ± 0.0089 |
| PTASDPLPPPPN | 0.867 ± 0.13 |
| PTATMLFLTRTG | 0.702 ± 0.043 |
| PTHCTPRRRTRR | 0.676 ± 0.014 |
| PTHSRQPPYLSL | 0.684 ± 0.027 |
| PTIGTLPTVGDD | 0.656 ± 0.02 |
| PTIPLLPPPLPP | 0.622 ± 0.022 |
| PTKRHRKAPGTN | 0.629 ± 0.069 |
| PTLTTQPNVPLN | 0.723 ± 0.038 |
| PTPPRRPLSFSP | 0.653 ± 0.057 |
| PTQSDSTSTSRI | 0.69 ± 0.016 |
| PTRPPAPGPGRH | 0.744 ± 0.045 |
| PTRPPSLPRIPP | 0.669 ± 0.028 |
| PTRQTIWPPPAS | 0.748 ± 0.026 |
| PTSACAPACPLL | 0.706 ± 0.032 |

| Sequence | protein stability index |
| --- | --- |
| PTSLPLPPPSLS | 0.7333 ± 0.0056 |
| PTSPPPPPPPPP | 0.657 ± 0.084 |
| PVAQSCHAPSPP | 0.62303 ± 0.00018 |
| PVFGRPFCSSSV | 0.682 ± 0.061 |
| PVFLQRVIPRSR | 0.678 ± 0.096 |
| PVHHLSLPSPLL | 0.732 ± 0.037 |
| PVLPPPAPSPPP | 0.678 ± 0.042 |
| PVLVLPHARSPF | 0.695 ± 0.021 |
| PVPASSSRSLLL | 0.671 ± 0.0095 |
| PVPPQHPPLKSI | 0.705 ± 0.059 |
| PVPRRPLLPLPP | 0.663 ± 0.02 |
| PVPSPLLPSFSL | 0.715 ± 0.064 |
| PVSPALTPFPPS | 0.705 ± 0.043 |
| PVSSPSSPLPPL | 0.678 ± 0.054 |
| PVVKVCRPVFLD | 0.829 ± 0.13 |
| PWFIGGSLGESG | 0.699 ± 0.027 |
| PWQSSPFTPALT | 0.649 ± 0.057 |
| PWTRMHRETRYL | 0.683 ± 0.02 |
| PWVSGGMGKGDV | 0.686 ± 0.0075 |
| PYAFPPPPPPPP | 0.64 ± 0.032 |
| PYFLLLVSIPPS | 0.525 ± 0.0056 |
| PYHTITPKPLQR | 0.677 ± 0.049 |
| PYLLGPIPGIPR | 0.666 ± 0.059 |
| PYPPPPRLLVSP | 0.7359 ± 0.0056 |
| PYQPSPFRLAAG | 0.67 ± 0.1 |
| PYRPPPPLALSL | 0.693 ± 0.015 |

| Sequence | protein stability index |
| --- | --- |
| PYRWQTRPDAVD | 0.666 ± 0.014 |
| PYSCPPGCRSVL | 0.6894 ± 0.0043 |
| PYSGSPRALPRP | 0.716 ± 0.069 |
| PYTHFFSPPFWP | 0.766 ± 0.04 |
| PYTPLLLSTLAP | 0.6899 ± 0.0016 |
| PYWYPRASRGAL | 0.699 ± 0.043 |
| QAKNNKKQKGWQ | 0.646 ± 0.046 |
| QARKGPISSCRP | 0.664 ± 0.067 |
| QARSLVRSLCYP | 0.677 ± 0.0082 |
| QAVVGSYRELGE | 0.709 ± 0.038 |
| QCIYVCKKTPTI | 0.679 ± 0.067 |
| QCNTFNKEKPER | 0.694 ± 0.021 |
| QCQVKGIFKKVF | 0.687 ± 0.0076 |
| QDDTASMVVMIR | 0.697 ± 0.034 |
| QDLDTALLLHAF | 0.657 ± 0.018 |
| QDSDRSLTPKPL | 0.688 ± 0.028 |
| QEALLAPEYSVD | 0.7 ± 0.0096 |
| QEMMRGVVGGNW | 0.715 ± 0.033 |
| QEVKLAPEHRLR | 0.675 ± 0.013 |
| QFCYSNPVSRYG | 0.6899 ± 0.004 |
| QFIFSRGGLPVL | 0.7351 ± 0.0015 |
| QFIPIRSIIMRG | 0.73 ± 0.038 |
| QFLWCFRPCCCS | 0.584 ± 0.081 |
| QFVLLFRSSGLR | 0.7104 ± 0.0017 |
| QGERHCCILVST | 0.555 ± 0.025 |
| QGGLCGVYGWSL | 0.68 ± 0.042 |

| Sequence | protein stability index |
| --- | --- |
| QGGSHARDRRRL | 0.678 ± 0.013 |
| QHFSSPQPVPYS | 0.696 ± 0.013 |
| QIKARVRRDLTL | 0.692 ± 0.096 |
| QKKIKNKRQHRT | 0.795 ± 0.11 |
| QKKKILNKQRTK | 0.681 ± 0.033 |
| QKKKKNRKQKIK | 0.696 ± 0.017 |
| QKKKPEKKAKRA | 0.721 ± 0.013 |
| QKNMVKKVENTR | 0.7637 ± 0.0067 |
| QKPHGDVSFQVM | 0.662 ± 0.033 |
| QKPKDYTEDKRD | 0.718 ± 0.11 |
| QKRAREKAPTPD | 0.729 ± 0.012 |
| QKTYHATQTRRR | 0.6839 ± 0.00099 |
| QLASISPSPNPS | 0.692 ± 0.021 |
| QLCRPRIFTNRG | 0.662 ± 0.034 |
| QLDRRKDSLLRH | 0.746 ± 0.017 |
| QLPPRLSRRLPP | 0.741 ± 0.17 |
| QLRRPPPPLPLP | 0.714 ± 0.0072 |
| QLSSARTILRRP | 0.597 ± 0.0085 |
| QNHKSYQTQDHN | 0.616 ± 0.051 |
| QNLEDDLSIAGS | 0.703 ± 0.02 |
| QNNRKEIKRNEI | 0.6662 ± 0.0039 |
| QNPRTDEAVRSP | 0.619 ± 0.011 |
| QPPAKSRETKYR | 0.741 ± 0.031 |

From the supplement of paper PMC10724198
